Here are results for eleven molecules from EP4578875A1.

Sequences and labels used below:
B1: anti-CD3 antibody mutant VH-Y61C conjugated with Molecule I (+20K) (antibody, V domains shown)
VH: EVQLVESGGGLVQPGGSLRLSCAASGFTFSTYAMNWVRQAPGKGLEWVGRIRSKYNNYATCYADSVKDRFTISRDDSKNSLYLQMNSLKTEDTAVYYCARHGNFGNSYVSWFAYWGQGTLVTVSS
VL: QTVVTQEPSLTVSPGGTVTLTCRSSTGAVTTSNYANWVQQKPGQAPRGLIGGTNKRAPGVPARFSGSLLGDKAALTLLGAQPEDEAEYFCALWYSNLWVFGGGTKLTVL
modifications: Molecule I (+20K; cleavable linker with PEG20K, shown only as a drawing) conjugated on Cys 61
B2: anti-CD3 antibody mutant VL-W93C conjugated with Molecule I (+20K) (antibody, V domains shown)
VH: EVQLVESGGGLVQPGGSLRLSCAASGFTFSTYAMNWVRQAPGKGLEWVGRIRSKYNNYATYYADSVKDRFTISRDDSKNSLYLQMNSLKTEDTAVYYCARHGNFGNSYVSWFAYWGQGTLVTVSS
VL: QTVVTQEPSLTVSPGGTVTLTCRSSTGAVTTSNYANWVQQKPGQAPRGLIGGTNKRAPGVPARFSGSLLGDKAALTLLGAQPEDEAEYFCALCYSNLWVFGGGTKLTVL
modifications: Molecule I (+20K, shown only as a drawing) conjugated on Cys 93
B3: anti-CD3 antibody mutant VL-N96C conjugated with Molecule I (+20K) (antibody, V domains shown)
VH: EVQLVESGGGLVQPGGSLRLSCAASGFTFSTYAMNWVRQAPGKGLEWVGRIRSKYNNYATYYADSVKDRFTISRDDSKNSLYLQMNSLKTEDTAVYYCARHGNFGNSYVSWFAYWGQGTLVTVSS
VL: QTVVTQEPSLTVSPGGTVTLTCRSSTGAVTTSNYANWVQQKPGQAPRGLIGGTNKRAPGVPARFSGSLLGDKAALTLLGAQPEDEAEYFCALWYSCLWVFGGGTKLTVL
modifications: Molecule I (+20K, shown only as a drawing) conjugated on Cys 96
B4: anti-CD3 antibody mutant VL-Y94C conjugated with Molecule I (+20K) (antibody, V domains shown)
VH: EVQLVESGGGLVQPGGSLRLSCAASGFTFSTYAMNWVRQAPGKGLEWVGRIRSKYNNYATYYADSVKDRFTISRDDSKNSLYLQMNSLKTEDTAVYYCARHGNFGNSYVSWFAYWGQGTLVTVSS
VL: QTVVTQEPSLTVSPGGTVTLTCRSSTGAVTTSNYANWVQQKPGQAPRGLIGGTNKRAPGVPARFSGSLLGDKAALTLLGAQPEDEAEYFCALWCSNLWVFGGGTKLTVL
modifications: Molecule I (+20K, shown only as a drawing) conjugated on Cys 94
B5: anti-CD3 VH-Y61C mutant conjugated with cleavable linker and R1 = PEG40K (antibody, V domains shown)
VH: EVQLVESGGGLVQPGGSLRLSCAASGFTFSTYAMNWVRQAPGKGLEWVGRIRSKYNNYATCYADSVKDRFTISRDDSKNSLYLQMNSLKTEDTAVYYCARHGNFGNSYVSWFAYWGQGTLVTVSS
VL: QTVVTQEPSLTVSPGGTVTLTCRSSTGAVTTSNYANWVQQKPGQAPRGLIGGTNKRAPGVPARFSGSLLGDKAALTLLGAQPEDEAEYFCALWYSNLWVFGGGTKLTVL
modifications: cleavable linker peptide P with blocker PEG40K on Cys 61
B6: anti-CD3 VH-Y61C mutant conjugated with cleavable linker and R1 = PEG10K (antibody, V domains shown)
VH: EVQLVESGGGLVQPGGSLRLSCAASGFTFSTYAMNWVRQAPGKGLEWVGRIRSKYNNYATCYADSVKDRFTISRDDSKNSLYLQMNSLKTEDTAVYYCARHGNFGNSYVSWFAYWGQGTLVTVSS
VL: QTVVTQEPSLTVSPGGTVTLTCRSSTGAVTTSNYANWVQQKPGQAPRGLIGGTNKRAPGVPARFSGSLLGDKAALTLLGAQPEDEAEYFCALWYSNLWVFGGGTKLTVL
modifications: cleavable linker peptide P with blocker PEG10K on Cys 61
B7: anti-CD3 VH-Y61C mutant conjugated with cleavable linker and R1 = PEG5K (antibody, V domains shown)
VH: EVQLVESGGGLVQPGGSLRLSCAASGFTFSTYAMNWVRQAPGKGLEWVGRIRSKYNNYATCYADSVKDRFTISRDDSKNSLYLQMNSLKTEDTAVYYCARHGNFGNSYVSWFAYWGQGTLVTVSS
VL: QTVVTQEPSLTVSPGGTVTLTCRSSTGAVTTSNYANWVQQKPGQAPRGLIGGTNKRAPGVPARFSGSLLGDKAALTLLGAQPEDEAEYFCALWYSNLWVFGGGTKLTVL
modifications: cleavable linker peptide P with blocker PEG5K on Cys 61
B8: anti-CD3 VH-Y61C mutant conjugated with PEG5K, after activation (antibody, V domains shown)
VH: EVQLVESGGGLVQPGGSLRLSCAASGFTFSTYAMNWVRQAPGKGLEWVGRIRSKYNNYATCYADSVKDRFTISRDDSKNSLYLQMNSLKTEDTAVYYCARHGNFGNSYVSWFAYWGQGTLVTVSS
VL: QTVVTQEPSLTVSPGGTVTLTCRSSTGAVTTSNYANWVQQKPGQAPRGLIGGTNKRAPGVPARFSGSLLGDKAALTLLGAQPEDEAEYFCALWYSNLWVFGGGTKLTVL
modifications: Cys 61 with what is left of the linker after activation (PEG5K blocker released); structure not given
B9: anti-CD3 VH-Y61C mutant conjugated with PEG10K, after activation (antibody, V domains shown)
VH: EVQLVESGGGLVQPGGSLRLSCAASGFTFSTYAMNWVRQAPGKGLEWVGRIRSKYNNYATCYADSVKDRFTISRDDSKNSLYLQMNSLKTEDTAVYYCARHGNFGNSYVSWFAYWGQGTLVTVSS
VL: QTVVTQEPSLTVSPGGTVTLTCRSSTGAVTTSNYANWVQQKPGQAPRGLIGGTNKRAPGVPARFSGSLLGDKAALTLLGAQPEDEAEYFCALWYSNLWVFGGGTKLTVL
modifications: Cys 61 with what is left of the linker after activation (PEG10K blocker released); structure not given
B10: anti-CD3 VH-Y61C mutant conjugated with PEG40K, after activation (antibody, V domains shown)
VH: EVQLVESGGGLVQPGGSLRLSCAASGFTFSTYAMNWVRQAPGKGLEWVGRIRSKYNNYATCYADSVKDRFTISRDDSKNSLYLQMNSLKTEDTAVYYCARHGNFGNSYVSWFAYWGQGTLVTVSS
VL: QTVVTQEPSLTVSPGGTVTLTCRSSTGAVTTSNYANWVQQKPGQAPRGLIGGTNKRAPGVPARFSGSLLGDKAALTLLGAQPEDEAEYFCALWYSNLWVFGGGTKLTVL
modifications: Cys 61 with what is left of the linker after activation (PEG40K blocker released); structure not given
B11: anti-CD3 VH-Y61C mutant conjugated with PEG20K, after activation (antibody, V domains shown)
VH: EVQLVESGGGLVQPGGSLRLSCAASGFTFSTYAMNWVRQAPGKGLEWVGRIRSKYNNYATCYADSVKDRFTISRDDSKNSLYLQMNSLKTEDTAVYYCARHGNFGNSYVSWFAYWGQGTLVTVSS
VL: QTVVTQEPSLTVSPGGTVTLTCRSSTGAVTTSNYANWVQQKPGQAPRGLIGGTNKRAPGVPARFSGSLLGDKAALTLLGAQPEDEAEYFCALWYSNLWVFGGGTKLTVL
modifications: Cys 61 with what is left of the linker after activation (PEG20K blocker released); structure not given

For one assay, the target named is CD3 (antibody antigen coated on the ELISA plate in Examples 1 to 3) (Homo sapiens (Human)) (UniProt P07766). Kind of assay: binding activity of the conjugated mutant compared with the wild-type antibody (ELISA as in Example 1).
Chain of CD3 (antibody antigen coated on the ELISA plate in Examples 1 to 3) (Homo sapiens (Human)) (P07766 23-126 limits assumed): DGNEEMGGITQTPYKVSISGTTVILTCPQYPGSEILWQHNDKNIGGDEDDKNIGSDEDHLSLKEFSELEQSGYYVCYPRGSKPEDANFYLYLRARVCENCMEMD
Consider B1, for which the Blocking fold after conjugation (+20K) stood at 400 fold.
Same read-out and setting: next, B2: 5 fold; B3: 2 fold.
Same read-out and setting: in the case of B4 it was 30 fold.

The target is the same in another assay. As to the kind of experiment: binding activity after conjugation with different R1; method not described.
As for B1, the Blocking fold after conjugation worked out at 400 fold.
The molecule B5 gave a Blocking fold after conjugation of 500 fold.
Same read-out and setting: in the case of B6 it was 20 fold; in that of B7, 10 fold.

A further assay shares this target. Kind of assay: binding activity after activation of the conjugate; method not described.
B8 registered a Recovery of binding force after activation (%) of 100%.
B9 had a Recovery of binding force after activation (%) of 100%.
As to B10, the Recovery of binding force after activation (%) is 100%.
For the molecule B11, the Recovery of binding force after activation (%) came to 100%.
